The values that follow come from paper PMC12009414.

Values joined by “and” are separate entries in the source; they are usually repeats but may differ in a detail not shown here. Identical values can stand only once.

What all share (assay): cryo-EM structure
Holding throughout (details): remark: other sources report otherwise

Assay [1] addresses T1, human DNA polymerase θ helicase domain (residues 1-894) (human), O75417.
For assay [2], the target named is T1, human DNA polymerase θ helicase domain …. This is another data set of the same source.
Assay [3] has the same target. The source holds these as a separate data set.

B1: human DNA polymerase θ helicase domain (residues 1-894), O75417 1-894 (domain or fragment)
chain: MNLLRRSGKRRRSESGSDSFSGSGGDSSASPQFLSGSVLSPPPGLGRCLKAAAAGECKPTVPDYERDKLLLANWGLPKAVLEKYHSFGVKKMFEWQAECLLLGQVLEGKNLVYSAPTSAGKTLVAELLILKRVLEMRKKALFILPFVSVAKEKKYYLQSLFQEVGIKVDGYMGSTSPSRHFSSLDIAVCTIERANGLINRLIEENKMDLLGMVVVDELHMLGDSHRGYLLELLLTKICYITRKSASCQADLASSLSNAVQIVGMSATLPNLELVASWLNAELYHTDFRPVPLLESVKVGNSIYDSSMKLVREFEPMLQVKGDEDHVVSLCYETICDNHSVLLFCPSKKWCEKLADIIAREFYNLHHQAEGLVKPSECPPVILEQKELLEVMDQLRRLPSGLDSVLQKTVPWGVAFHHAGLTFEERDIIEGAFRQGLIRVLAATSTLSSGVNLPARRVIIRTPIFGGRPLDILTYKQMVGRAGRKGVDTVGESILICKNSEKSKGIALLQGSLKPVRSCLQRREGEEVTGSMIRAILEIIVGGVASTSQDMHTYAACTFLAASMKEGKQGIQRNQESVQLGAIEACVMWLLENEFIQSTEASDGTEGKVYHPTHLGSATLSSSLSPADTLDIFADLQRAMKGFVLENDLHILYLVTPMFEDWTTIDWYRFFCLWEKLPTSMKRVAELVGVEEGFLARCVKGKVVARTERQHRQMAIHKRFFTSLVLLDLISEVPLREINQKYGCNRGQIQSLQQSAAVYAGMITVFSNRLGWHNMELLLSQFQKRLTFGIQRELCDLVRVSLLNAQRARVLYASGFHTVADLARANIVEVEVILKNAVPFKSARKAVDEEEEAVEERRNMRTIWVTGRKGLTEREAAALIVEEARMILQQDLVEM
Turning to B1, the stoichiometry N was 2 in assay [1]; 2 and 4 in assay [2]; 2 in assay [3].
